The values that follow come from publication PMC11316058.

This experiment deals with Hsp90α (N-terminally His-tagged, human) (human) (UniProt P07900). Briefly: ITC; Ahsa1 or Ahsa1^Δ20 (200-300 µM) in the syringe injected into Hsp90-α (30 µM) in the cell; 25 °C; 30 mM Tris pH 7.5, 20 mM KCl, 10% glycerol, 1 mM TCEP; two-site-binding model; three independent experiments. For orientation: In ITC the heat of successive injections is recorded.

In the case of “Ahsa1^Δ20 (C-terminal 6xHis) (from UniProt O95433 21-338) (domain or fragment)”, the Kd (in general, a measure of binding affinity in units of concentration) came out at 3200 nM.
With “full-length Ahsa1 (C-terminal 6xHis) (from UniProt O95433 1-338) (natural protein)”, the Kd was found to be 1730 nM. Against the preceding substance, the Kd is about 1.8-fold lower.
